T1: huCLL1-K244-Avi-Tev-His (human, UniProt Q5QGZ9 65-265)
T1 construct: extracellular domain
T1 sequence (looked up): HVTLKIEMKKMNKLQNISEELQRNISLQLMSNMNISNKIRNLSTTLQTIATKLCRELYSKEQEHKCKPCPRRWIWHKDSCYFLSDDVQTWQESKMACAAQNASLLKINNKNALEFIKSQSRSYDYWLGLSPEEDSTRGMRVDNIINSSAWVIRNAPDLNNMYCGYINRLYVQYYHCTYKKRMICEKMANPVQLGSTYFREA

T2: huCLL1-Q244-Avi-Tev-His (human, UniProt Q5QGZ9 65-265)
T2 construct: extracellular domain; also called CLL-1 K244Q
T2 sequence (looked up): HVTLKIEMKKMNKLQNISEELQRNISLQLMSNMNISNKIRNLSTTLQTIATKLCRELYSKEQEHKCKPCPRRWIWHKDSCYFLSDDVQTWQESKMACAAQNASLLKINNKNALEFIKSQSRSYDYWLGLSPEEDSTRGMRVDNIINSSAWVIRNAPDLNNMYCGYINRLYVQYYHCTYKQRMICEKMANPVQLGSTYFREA


Columns and labels:
huCLL1-K244-Avi-Tev-His = molecular target: T1, huCLL1-K244-Avi-Tev-His; experiment: BLI
huCLL1-Q244-Avi-Tev-His = molecular target: T2, huCLL1-Q244-Avi-Tev-His; experiment: BLI

binding result (huCLL1-K244-Avi-Tev-His) | binding result (huCLL1-Q244-Avi-Tev-His) | Binder
binds | binds | Polypeptide No. 163 (scFv, V domains shown, scFv) VH: QVQLVQSGAEVKKPGASVKVSCKASGYTFTSYYMQWVRQAPGQGLEWMGWMNPNSGNTGYAQKFQGRVTMTRDTSTSTVYMELSSLRSEDTAVYYCARALYGDYLDIWGQGTTVTVSS VL: DIQMTQSPSSLSASVGDRVTITCRASQPIATWLAWYQQKPGKAPKLLIYDTSSLQSGVPSRFSGSGSGTDFTLTISSLQPEDFATYYCQQSYSLPLGFGQGTKVEIKR
binds | binds | Polypeptide No. 173 (scFv, V domains shown, scFv) VH: QVQLVQSGAEVKKPGASVKVSCKASGYTFNGYNMHWVRQAPGQGLEWMGWINPNSGDTNYAQKFQGRVTMTRDTSTSTVYMELSSLRSEDTAVYYCASLDYGDYAVYWGQGTLVTVSS VL: DIQMTQSPSSLSASVGDRVTITCRASQSISTWLAWYQQKPGKAPKLLIYDASSLRSGVPSRFSGSGSGTDFTLTISSLQPEDFATYYCQQSYSTPITFGQGTKVEIKR
binds | binds | Polypeptide No. 171 (scFv, V domains shown, scFv) VH: QVQLVQSGAEVKKPGASVKVSCKASGYTFTDYYIHWVRQAPGQGLEWMGMVDPNTGNINYAQTFQGRVTMTRDTSTSTVYMELSSLRSEDTAVYYCTSGSTNDAFDIWGQGTMVTVSS VL: DIQMTQSPSSLSASVGDRVTITCRASQSIGPWLAWYQQKPGKAPKLLIYEASNLASGVPSRFSGSGSGTDFTLTISSLQPEDFATYYCQQSYSTPLTFGGGTKVEIKR
binds | binds | Polypeptide No. 170 (scFv, V domains shown, scFv) VH: QVQLVQSGAEVKKPGASVKVSCKASGGSFSNHGVSWVRQAPGQGLEWMGWMNPNSGDTGYAQKFQGRVTMTRDTSTSTVYMELSSLRSEDTAVYYCARPRKDDAFAIWGQGTLVTVSS VL: DIQMTQSPSSLSASVGDRVTITCRASQSISSWLAWYQQKPGKAPKLLIYEASTLQSGVPSRFSGSGSGTDFTLTISSLQPEDFATYYCQQSYSTPLTFGQGTKVEIKR
binds | binds | Polypeptide No. 172 (scFv, V domains shown, scFv) VH: QVQLVQSGAEVKKPGASVKVSCKASGYTFSDYYVHWVRQAPGQGLEWMGWMNPNSGNTGYAQKFQGRVTMTRDTSTSTVYMELSSLRSEDTAVYYCARGLTGDQFDYWGQGTLVTVSS VL: not shown
binds | binds | Polypeptide No. 166 (scFv, V domains shown, scFv) VH: QVQLVQSGAEVKKPGASVKVSCKASGYTFESYDMNWVRQAPGQGLEWMGWIDPHSGDTNFAQKFQGRVTMTRDTSTSTVYMELSSLRSEDTAVYYCARADYGGNADYWGQGTLVTVSS VL: DIQMTQSPSSLSASVGDRVTITCRASQGISNWLAWYQQKPGKAPKLLIYDASNLETGVPSRFSGSGSGTDFTLTISSLQPEDFATYYCQQSYSTPYTFGQGTKVEIKR
binds | binds | Polypeptide No. 165 (scFv, V domains shown, scFv) VH: QVQLVQSGAEVKKPGASVKVSCKASGYTFTSYDINWVRQAPGQGLEWMGWMNPNSGNTGYAQKFQGRVTMTRDTSTSTVYMELSSLRSEDTAVYYCARLSSGYYPDYWGQGTLVTVSS VL: DIQMTQSPSSLSASVGDRVTITCRASQFIANWLAWYQQKPGKAPKLLIYDASSLESGVPSRFSGSGSGTDFTLTISSLQPEDFATYYCQQSYSTPLTFGGGTKVEIKR
binds | binds | Polypeptide No. 169 (scFv, V domains shown, scFv) VH: QVQLVQSGAEVKKPGASVKVSCKASGYTFTNDYIHWVRQAPGQGLEWMGWMSPNSGKTGFAQKFQGRVTMTRDTSTSTVYMELSSLRSEDTAVYYCAKDNSSGWYFDLWGRGTLVTVSS VL: DIQMTQSPSSLSASVGDRVTITCRVSQGISSYLAWYQQKPGKAPKLLIYDASNLETGVPSRFSGSGSGTDFTLTISSLQPEDFATYYCQQYDTLPITFGQGTRLEIKR
binds | binds | Polypeptide No. 162 (scFv, V domains shown, scFv) VH: QVQLVQSGAEVKKPGASVKVSCKASGYTFTNYGISWVRQAPGQGLEWMGWINPNSGGTNFAQKFQGRVTMTRDTSTSTVYMELSSLRSEDTAVYYCARGTNGDELDYWGQGTLVTVSS VL: not shown
binds | binds | Polypeptide No. 167 (scFv, V domains shown, scFv) VH: QVQLVQSGAEVKKPGASVKVSCKASGYTFTSYYMHWVRQAPGQGLEWMGWINPNSGGTNYAQKFQGRVTMTRDTSTSTVYMELSSLRSEDTAVYYCARGTTGDDFDYWGQGTLVTVSS VL: DIQMTQSPSSLSASVGDRVTITCRASQDISTWLAWYQQKPGKAPKLLIYAASSLQSGVPSRFSGSGSGTDFTLTISSLQPEDFATYYCQQSYSIPPTFGPGTKVDIKR
binds | binds | Polypeptide No. 168 (scFv, V domains shown, scFv) VH: QVQLVQSGAEVKKPGASVKVSCKASGYTFTNYGISWVRQAPGQGLEWMGWINPNSGGTNYAQKFQGRVTMTRDTSTSTVYMELSSLRSEDTAVYYCARVRSDDFFDYWGQGTLVTVSS VL: DIQMTQSPSSLSASVGDRVTITCRASQSVNHWLAWYQQKPGKAPKLLIYAASTLQSGVPSRFSGSGSGTDFTLTISSLQPEDFATYYCQQSYSLPLTFGGGTKVEIKR
binds | binds | Polypeptide No. 176 (scFv, V domains shown, scFv) VH: QVQLVQSGAEVKKPGASVKVSCKASGGSFTSYYIHWVRQAPGQGLEWVGWMNPNSGNTGYAQKFQGRVTMTRDTSTSTVYMELSSLRSEDTAVYYCARGATDDAFDIWGQGTMVTVSS VL: DIQMTQSPSSLSASVGDRVTITCRASQNIDTWLAWYQQKPGKAPKLLIYDGSNLEAGVPSRFSGSGSGTDFTLTISSLQPEDFATYYCQQSYNTPITFGQGTRLEIKR
binds | binds | Polypeptide No. 164 (scFv, V domains shown, scFv) VH: QVQLVQSGAEVKKPGASVKVSCKASGYTFTAHYIHWVRQAPGQGLEWMGIINPNGGRTTYAQKFQGRVTMTRDTSTSTVYMELSSLRSEDTAVYYCARDSDFWSGYYSDYYYGMDVWGQGTTVTVSS VL: DIQMTQSPSSLSASVGDRVTITCQASQDISNFLNWYQQKPGKAPKLLIYATSTLQSGVPSRFSGSGSGTDFTLTISSLQPEDFATYYCQQSYTTEWTFGQGTKVEIKR
binds | binds | Polypeptide No. 175 (scFv, V domains shown, scFv) VH: QVQLVQSGAEVKKPGASVKVSCKASGYTFTSYDIHWVRQAPGQGLEWMGWINPNSGNTGYAQKFQGRVTMTRDTSTSTVYMELSSLRSEDTAVYYCAGGPDVDAAMVLDYWGQGTLVTVSS VL: DIQMTQSPSSLSASVGDRVTITCQASQDISNYLNWYQQKPGKAPKLLIYDASNLETGVPSRFSGSGSGTDFTLTISSLQPEDFATYYCQQADGFPPTFGGGTKVEIKR
binds | binds | Polypeptide No. 174 (scFv, V domains shown, scFv) VH: EVQLLESGGGLVQPGGSLRLSCAASGFIFRDHWMHWVRQAPGKGLEWVSSIDFSTGYIYYADSVKGRFTISRDNSKNTLYLQMNSLRAEDTAVYYCARDPWGDGDFDYWGRGTLVTVSS VL: DIQMTQSPSSLSASVGDRVTITCRASQSISSWLAWYQQKPGKAPKLLIYAASSLQSGVPSRFSGSGSGTDFTLTISSLQPEDFATYYCQQTYTTPYTFGQGTRLEIKR

Source: US20240101668A1 (WUGEN, published 2024)
